From paper PMC6160157

Assays:
[1] = molecular target: HA tri-stalk protein (HA amino acids 403-474 of the pandemic strain A/Luxembourg/43/2009(H1N1)) (Influenza A virus A/Luxembourg/43/2009(H1N1)); test: SEC
[2] = molecular target: HA tri-stalk protein (HA amino acids 403-474 of the pandemic strain A/Luxembourg/43/2009(H1N1)) (Influenza A virus A/Luxembourg/43/2009(H1N1)); test: crystal structure

HA tri-stalk protein (HA amino acids 403-474 of the pandemic strain A/Luxembourg/43/2009(H1N1)) (domain or fragment)
stoichiometry N [1]: 3
stoichiometry N [2]: 3
